The source of these data is patent CN114395035A (JIANGSU MICKEE MEDICAL TECH CO LTD; INST OF MICROBIOLOGY OF …, dated 2022).

This experiment has as its target SARS-CoV-2 Prototype RBD蛋白 (野生型新型冠状病毒刺突蛋白受体结合域段RBD蛋白) (SARS-CoV-2, UniProt P0DTC2 319-541). As to the kind of experiment: SPR (Biacore 8K). In general terms: SPR reads the build-up and loss of mass on a sensor chip optically.

B1: IMCAS-123抗体 (全抗IgG1) (antibody, V domains shown)
VH: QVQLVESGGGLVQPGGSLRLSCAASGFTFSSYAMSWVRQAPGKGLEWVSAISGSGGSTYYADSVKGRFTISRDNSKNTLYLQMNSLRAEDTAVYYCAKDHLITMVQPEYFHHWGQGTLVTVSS
VL: DIQMTQSPSSVSASVGDSVTITCRASQGISRWLAWYQQRPGKAPKLLIYAAGNLETGVPSRFSGSGSGTDFTLTISDLQAEDFATYYCQQADSFPLTFGGGTKVDIKR
notes: also called T1线抗体
What is called Kd is the free concentration of one partner at which half of the binding sites on the other are occupied at equilibrium, for simple one-to-one binding. A high value points to weaker binding. As for B1, the Kd is 0.18 nM.

B2: IMCAS-364抗体 (全抗IgG1) (antibody, V domains shown)
VH: QVQLQESGGGVVQPGRSLRLSCAASGFTFSRYGMHWVRQAPGKGLEWVAVIWYDGSNKYYADSVKGRFTISRDNSKNTLYLQMNSLRADDTAVYYCAKQEGTYCSGGSCYSGLDYWGQGTLVTVSS
VL: not shown
notes: also called 金标抗体 (胶体金标记)
B2: binding was characterised by a dissociation constant (Kd) of 1.04 nM.
